No end group written: not given here. *: point of attachment. FITC = O=C1OC2(c3ccc(O)cc3Oc3cc(O)ccc32)c2ccc(NC(=S)*)cc21
Experiments:
eIF4GI557-1599;eIF4A [1] = molecular target: T1, eIF4GI557-1599;eIF4A (human;human?, UniProt Q04637;P60842 557-1599;1-406, |); experiment: fluorescence anisotropy; ATP; mRNA pre-bound by eIF4E•4E-BP1; 20 mM HEPES-KOH pH 7.5, 200 mM KCl, 1 mM MgCl2, 25 °C; 10 nM labeled mRNA; pre-assembly with 0.5 uM eIF4E and 1 uM 4E-BP1; conditions: protein: recombinant;recombinant, tags: N-terminal 6xHis, TEV-cleaved;N-terminal His-MBP, copies: 1;1, label: 3' fluorescein, structured 5'UTR
eIF4GI557-1599 [2] = molecular target: T2, eIF4GI557-1599 (human, UniProt Q04637 557-1599); experiment: fluorescence anisotropy; mRNA pre-bound by eIF4E•FITC-4E-BP1 peptide (label on peptide); 20 mM HEPES-KOH pH 7.5, 200 mM KCl, 1 mM MgCl2, 25 °C; 10 nM labeled mRNA; pre-assembly with 0.5 uM eIF4E and 1 uM 4E-BP1; conditions: protein: recombinant; tags: N-terminal 6xHis, TEV-cleaved; label: 3' fluorescein; structured 5'UTR
eIF4E;4E-BP1 = eIF4E;4E-BP1 (human;human, UniProt P06730;Q13541 1-217;1-118, |); experiment: fluorescence anisotropy; 20 mM HEPES-KOH pH 7.5, 200 mM KCl, 1 mM MgCl2, 25 °C; 10 nM labeled mRNA; pre-assembly with 0.5 uM eIF4E and 1 uM 4E-BP1; conditions: protein: recombinant;recombinant, tags: N-terminal polyHis, TEV-cleaved;N-terminal 6xHis, copies: 1;1, label: 3' fluorescein
eIF4E = eIF4E (human, UniProt P06730 1-217); experiment: as above; conditions: protein: recombinant, tags: N-terminal polyHis, TEV-cleaved, label: 3' fluorescein
4E-BP1 = 4E-BP1 (human, UniProt Q13541 1-118); experiment: as above; conditions: protein: recombinant, tags: N-terminal 6xHis, TEV-cleaved, label: 3' fluorescein
eIF4GI557-1599 [3] = molecular target: T2, eIF4GI557-1599; experiment: as above; conditions: protein: recombinant, tags: N-terminal 6xHis, TEV-cleaved, label: 3' fluorescein; for Kd: structured 5'UTR
eIF4GI557-1599 [4] = molecular target: T2, eIF4GI557-1599; experiment: fluorescence anisotropy; mRNA pre-bound by eIF4E•4E-BP1; 20 mM HEPES-KOH pH 7.5, 200 mM KCl, 1 mM MgCl2, 25 °C; 10 nM labeled mRNA; pre-assembly with 0.5 uM eIF4E and 1 uM 4E-BP1; conditions: protein: recombinant; tags: N-terminal 6xHis, TEV-cleaved; label: 3' fluorescein; structured 5'UTR
eIF4GI557-1599;eIF4A [5] = molecular target: T1, eIF4GI557-1599;eIF4A; experiment: as above; conditions: protein: recombinant;recombinant, tags: N-terminal 6xHis, TEV-cleaved;N-terminal His-MBP, copies: 1;1, label: 3' fluorescein; for Kd: structured 5'UTR
eIF4GI557-1599 [6] = molecular target: T2, eIF4GI557-1599; experiment: fluorescence anisotropy; mRNA pre-bound by eIF4E•FITC-4E-BP1 peptide (label on peptide); text gives error 0.7; 20 mM HEPES-KOH pH 7.5, 200 mM KCl, 1 mM MgCl2, 25 °C; 10 nM labeled mRNA; pre-assembly with 0.5 uM eIF4E and 1 uM 4E-BP1; conditions: protein: recombinant; tags: N-terminal 6xHis, TEV-cleaved; label: 3' fluorescein; structured 5'UTR
eIF4GI557-1599 [7] = molecular target: T2, eIF4GI557-1599; experiment: fluorescence anisotropy; text gives error 3.1; 20 mM HEPES-KOH pH 7.5, 200 mM KCl, 1 mM MgCl2, 25 °C; 10 nM labeled mRNA; pre-assembly with 0.5 uM eIF4E and 1 uM 4E-BP1; conditions: protein: recombinant; tags: N-terminal 6xHis, TEV-cleaved; label: 3' fluorescein; structured 5'UTR
eIF4GI557-1599 [8] = molecular target: T2, eIF4GI557-1599; experiment: fluorescence anisotropy; mRNA pre-bound by eIF4E•FITC-4E-BP1 peptide (label on peptide); text gives error 1.5; 20 mM HEPES-KOH pH 7.5, 200 mM KCl, 1 mM MgCl2, 25 °C; 10 nM labeled mRNA; pre-assembly with 0.5 uM eIF4E and 1 uM 4E-BP1; conditions: protein: recombinant; tags: N-terminal 6xHis, TEV-cleaved; label: 3' fluorescein; structured 5'UTR
[9] = molecular target: eukaryotic initiation factor 4E (eIF4E) (human, UniProt P06730 1-217); experiment: fluorescence polarisation; fluorescence anisotropy; 20 nM FITC-labelled 4E-BP1 peptide, free or preincubated with 10 nM eIF4E for 20 min at 25 °C, titrated with protein (eIF4E: 200 ul of 20 nM peptide with 2.5 uM eIF4E); no mRNA; Hill-equation fit; conditions: both partners purified
eIF4GI557-1599;eIF4A [10] = molecular target: T1, eIF4GI557-1599;eIF4A; experiment: fluorescence anisotropy; mRNA pre-bound by eIF4E•4E-BP1; text gives error 1.0; 20 mM HEPES-KOH pH 7.5, 200 mM KCl, 1 mM MgCl2, 25 °C; 10 nM labeled mRNA; pre-assembly with 0.5 uM eIF4E and 1 uM 4E-BP1; conditions: protein: recombinant;recombinant, tags: N-terminal 6xHis, TEV-cleaved;N-terminal His-MBP, copies: 1;1, label: 3' fluorescein, structured 5'UTR
eIF4GI557-1599;eIF4A [11] = molecular target: T1, eIF4GI557-1599;eIF4A; experiment: fluorescence anisotropy; ATP; mRNA pre-bound by eIF4E•4E-BP1; text gives error 1.5; 20 mM HEPES-KOH pH 7.5, 200 mM KCl, 1 mM MgCl2, 25 °C; 10 nM labeled mRNA; pre-assembly with 0.5 uM eIF4E and 1 uM 4E-BP1; conditions: protein: recombinant;recombinant, tags: N-terminal 6xHis, TEV-cleaved;N-terminal His-MBP, copies: 1;1, label: 3' fluorescein, structured 5'UTR

Chain of eIF4E;4E-BP1 (P06730 whole entry, chain 1 of 2): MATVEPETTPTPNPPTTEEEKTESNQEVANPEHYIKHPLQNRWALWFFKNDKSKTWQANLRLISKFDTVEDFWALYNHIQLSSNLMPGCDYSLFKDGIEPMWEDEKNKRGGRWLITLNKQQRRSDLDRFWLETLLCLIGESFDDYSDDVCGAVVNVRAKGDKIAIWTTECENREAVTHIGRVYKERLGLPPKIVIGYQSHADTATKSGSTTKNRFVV
Chain of eIF4E;4E-BP1 (Q13541 whole entry, chain 2 of 2): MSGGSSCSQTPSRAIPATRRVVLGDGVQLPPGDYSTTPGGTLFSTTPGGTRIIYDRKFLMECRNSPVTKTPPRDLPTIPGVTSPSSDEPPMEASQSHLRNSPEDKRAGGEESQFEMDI
Chain of eIF4E (P06730 whole entry): as the sequence (P06730 whole entry, chain 1 of 2) above
T2 sequence (Q04637 557-1599): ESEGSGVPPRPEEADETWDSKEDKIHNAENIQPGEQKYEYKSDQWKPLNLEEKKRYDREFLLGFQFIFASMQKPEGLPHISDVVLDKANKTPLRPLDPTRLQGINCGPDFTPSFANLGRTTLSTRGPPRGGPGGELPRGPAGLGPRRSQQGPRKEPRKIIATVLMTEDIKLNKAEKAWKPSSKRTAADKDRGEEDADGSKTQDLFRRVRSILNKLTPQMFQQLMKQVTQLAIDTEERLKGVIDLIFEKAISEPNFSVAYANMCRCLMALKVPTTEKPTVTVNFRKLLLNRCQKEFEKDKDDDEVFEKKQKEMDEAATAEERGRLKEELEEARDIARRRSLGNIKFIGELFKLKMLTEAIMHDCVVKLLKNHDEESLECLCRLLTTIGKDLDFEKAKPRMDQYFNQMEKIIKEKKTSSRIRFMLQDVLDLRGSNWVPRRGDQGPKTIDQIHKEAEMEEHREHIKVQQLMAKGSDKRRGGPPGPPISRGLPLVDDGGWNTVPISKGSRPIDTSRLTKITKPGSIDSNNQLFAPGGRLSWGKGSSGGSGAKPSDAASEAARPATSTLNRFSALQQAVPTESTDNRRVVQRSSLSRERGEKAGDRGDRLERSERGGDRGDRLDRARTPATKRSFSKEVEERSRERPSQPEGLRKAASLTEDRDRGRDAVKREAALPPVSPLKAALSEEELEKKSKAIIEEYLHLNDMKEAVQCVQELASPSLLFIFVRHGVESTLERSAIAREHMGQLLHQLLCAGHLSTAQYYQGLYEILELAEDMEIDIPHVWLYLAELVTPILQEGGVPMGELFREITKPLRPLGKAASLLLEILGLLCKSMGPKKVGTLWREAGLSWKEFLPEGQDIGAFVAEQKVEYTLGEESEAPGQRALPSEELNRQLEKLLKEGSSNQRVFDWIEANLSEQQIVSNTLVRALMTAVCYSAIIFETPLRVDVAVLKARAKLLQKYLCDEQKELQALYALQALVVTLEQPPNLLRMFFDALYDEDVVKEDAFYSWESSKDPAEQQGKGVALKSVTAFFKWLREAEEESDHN
T1 sequence (Q04637 557-1599, chain 1 of 2): as the sequence (Q04637 557-1599) above
T1 sequence (P60842 whole entry, chain 2 of 2): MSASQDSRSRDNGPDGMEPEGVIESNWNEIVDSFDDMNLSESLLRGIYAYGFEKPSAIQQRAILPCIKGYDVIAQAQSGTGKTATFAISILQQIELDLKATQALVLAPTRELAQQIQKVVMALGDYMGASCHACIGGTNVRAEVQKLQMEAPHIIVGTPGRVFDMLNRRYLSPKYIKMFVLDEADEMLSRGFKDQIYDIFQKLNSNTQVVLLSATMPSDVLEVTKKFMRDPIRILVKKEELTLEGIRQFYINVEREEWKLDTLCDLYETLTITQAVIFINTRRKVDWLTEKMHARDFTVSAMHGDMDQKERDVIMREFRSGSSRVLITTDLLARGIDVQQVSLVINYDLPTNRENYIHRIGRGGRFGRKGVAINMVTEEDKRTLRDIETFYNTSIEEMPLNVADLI
Chain of 4E-BP1 (Q13541 whole entry): as the sequence (Q13541 whole entry, chain 2 of 2) above
Chain of eukaryotic initiation factor 4E (eIF4E) (P06730 whole entry): as the sequence (P06730 whole entry, chain 1 of 2) above

| Binder | Kd (eIF4GI557-1599;eIF4A [1]) [nM] | Kd (eIF4GI557-1599 [2]) [nM] | Kd (eIF4E;4E-BP1; structured 5'UTR) [nM] | Kd (eIF4E; structured 5'UTR) [nM] | binding result (4E-BP1; structured 5'UTR) | Kd (eIF4GI557-1599 [3]) [nM] | Kd (eIF4GI557-1599 [4]) [nM] | Kd (eIF4GI557-1599;eIF4A [5]) [nM] | Kd (eIF4GI557-1599 [6]) [nM] | Kd (eIF4E;4E-BP1; unstructured control) [nM] | Kd (eIF4E; unstructured control) [nM] | binding result (4E-BP1; unstructured control) | binding result (eIF4GI557-1599 [3]; unstructured control) | binding result (eIF4GI557-1599;eIF4A [5]; unstructured control) | Kd (eIF4GI557-1599 [7]) [nM] | Kd (eIF4GI557-1599 [8]) [nM] | Kd [9] [nM] | Kd (eIF4GI557-1599;eIF4A [10]) [nM] | Kd (eIF4GI557-1599;eIF4A [11]) [nM] |
| --- | --- | --- | --- | --- | --- | --- | --- | --- | --- | --- | --- | --- | --- | --- | --- | --- | --- | --- | --- |
| m7G p53B 5'UTR (structured_RNA, 5' m7G cap) RNA: AUGGAGGAGCCGCAGUCAGAUCCUAGCGUCGAGCCCCCUCUGAGUCAGGAAACAUUUUCAGACCUAUGGAAACUACUUCCUGAAAACAACGUUCUGUCCCCCUUGCCGUCCCAAGCA | 22 ± 1.1 | 47 ± 0.7 | 28 ± 2.3 | 54 ± 2.3 | no binding | 18 ± 3.1 | 18 ± 0.3 | 21 ± 2.2 | – | – | – | – | – | – | – | – | – | – | – |
| ApppG p53B 5'UTR (structured_RNA, 5' ApppG cap (non-functional)) RNA: AUGGAGGAGCCGCAGUCAGAUCCUAGCGUCGAGCCCCCUCUGAGUCAGGAAACAUUUUCAGACCUAUGGAAACUACUUCCUGAAAACAACGUUCUGUCCCCCUUGCCGUCCCAAGCA | 21 ± 1.1 | – | 89 ± 3.5 | 159 ± 4.2 | no binding | 66 ± 1.7 | 22 ± 0.8 | 28 ± 1.8 | 42 ± 2 | – | – | – | – | – | – | – | – | – | – |
| m7G beta-actin 5'UTR (structured_RNA, 5' m7G cap) RNA: GGACCGCCGAGACCGCGUCCGCCCCGCGAGCACAGAGCCUCGCCUUUGCCGAUCCGCCGCCCGCCACACCCGCCGCCAGCUCAC | – | – | – | – | – | – | – | – | – | 12 ± 0.6 | 28 ± 1.8 | no binding | no binding | no binding | – | – | – | – | – |
| m7G p53A 5'UTR (structured_RNA, 5' m7G cap) RNA: UCUAGAGCCACCGUCCAGGGAGCAGGUAGCUGCUGGGCUCCGGGGACACUUUGCGUUCGGGCUGGGAGCGUGCUUUCCACGACGGUGACACGCUUCCCUGGAUUGGCAGCCAGACUGCCUUCCGGGUCACUGCC | 35 ± 1.3 | 29 ± 1.3 | 13 ± 1.1 | 59 ± 7.5 | no binding | – | 31 ± 5.9 | 33 ± 0.7 | – | – | – | – | – | – | 44 ± 1 | – | – | – | – |
| ApppG p53A 5'UTR (structured_RNA, 5' ApppG cap (non-functional)) RNA: UCUAGAGCCACCGUCCAGGGAGCAGGUAGCUGCUGGGCUCCGGGGACACUUUGCGUUCGGGCUGGGAGCGUGCUUUCCACGACGGUGACACGCUUCCCUGGAUUGGCAGCCAGACUGCCUUCCGGGUCACUGCC | 16 ± 0.8 | – | 45 ± 1.6 | 186 ± 0.8 | no binding | 81 ± 1.3 | 25 ± 1.1 | 20 ± 2 | – | – | – | – | – | – | – | 35 ± 0.5 | – | – | – |
| PGGTRIIYDRK(FITC)FLMECRNSP (also called FITC-4E-BP1 peptide; 4E-BP1-FITC-Peptide; source: synthetic peptide, bought: GenScript (>=98% purity)) [fluorescein-labeled 4E-BP1 peptide] | – | – | – | – | – | – | – | – | – | – | – | – | – | – | – | – | 5 ± 3.7 | – | – |
| m7G FGF-9 5'UTR (structured_RNA, 5' m7G cap) RNA: GAAACAGCAGAUUACUUUUAUUUAUGCAUUUAAUGGAUUGAAGAAAAGAACCUUUUUUUUUCUCUCUCUCUCUGCAACUGCAGUAAGGGAGGGGAGUUGGAUAUACCUCGCCUAAUAUCUCCUGGGUUGACACCAUCAUUAUUGUUUAUUCUUGUGCUCCAAAAGCCGAGUCCUCUG | 24 ± 1.5 | 32 ± 0.3 | 32 ± 3.9 | 72 ± 1.6 | no binding | 20 ± 2 | 24 ± 0.9 | 23 ± 1.3 | – | – | – | – | – | – | – | – | – | – | – |
| ApppG FGF-9 5'UTR (structured_RNA, 5' ApppG cap (non-functional)) RNA: GAAACAGCAGAUUACUUUUAUUUAUGCAUUUAAUGGAUUGAAGAAAAGAACCUUUUUUUUUCUCUCUCUCUCUGCAACUGCAGUAAGGGAGGGGAGUUGGAUAUACCUCGCCUAAUAUCUCCUGGGUUGACACCAUCAUUAUUGUUUAUUCUUGUGCUCCAAAAGCCGAGUCCUCUG | 18 ± 1 | 25 ± 1 | 87 ± 2 | 138 ± 4.6 | no binding | 28 ± 0.7 | 13 ± 0.6 | – | – | – | – | – | – | – | – | – | – | 15 ± 0.3 | – |
| m7G HIF-1alpha 5'UTR (structured_RNA, 5' m7G cap) RNA: AGUGCACAGUGCUGCCUCGUCUGAGGGGACAGGAGGAUCACCCUCUUCGUCGCUUCGGCCAGUGGUCGGGCUGGGCCCUGACAAGCCACCUGAGGAGAGGCUCGGAGCCGGGCCCGGACCCCGGCGAUUGCCGCCCGCUUCUCUCUAGUCUCACGAGGGGUUUCCCGCCUCGCACCCCCACCUCUGGACUUGCCUUUCCUUCUCUUCUCCGCGUGUGGAGGGAGCCAGCGCUUAGGCCGGAGCGAGCCUGGGGGCCGCCCGCCGUGAAGACAUCGCGGGGACCGAUUCACC | – | 21 ± 0.7 | 15 ± 3.4 | 56 ± 1.5 | no binding | 22 ± 0.5 | 15 ± 3.4 | 20 ± 1.3 | – | – | – | – | – | – | – | – | – | – | 21 ± 0.5 |
| ApppG HIF-1alpha 5'UTR (structured_RNA, 5' ApppG cap (non-functional)) RNA: AGUGCACAGUGCUGCCUCGUCUGAGGGGACAGGAGGAUCACCCUCUUCGUCGCUUCGGCCAGUGGUCGGGCUGGGCCCUGACAAGCCACCUGAGGAGAGGCUCGGAGCCGGGCCCGGACCCCGGCGAUUGCCGCCCGCUUCUCUCUAGUCUCACGAGGGGUUUCCCGCCUCGCACCCCCACCUCUGGACUUGCCUUUCCUUCUCUUCUCCGCGUGUGGAGGGAGCCAGCGCUUAGGCCGGAGCGAGCCUGGGGGCCGCCCGCCGUGAAGACAUCGCGGGGACCGAUUCACC | 24 ± 4.3 | 30 ± 3.1 | 52 ± 0.5 | 199 ± 1.5 | no binding | 67 ± 1.8 | 25 ± 1.8 | 19 ± 0.6 | – | – | – | – | – | – | – | – | – | – | – |
